# In doi:10.1101/379495v1:
# B1: BLLJ_1852 (Bifidobacterium longum subsp. longum JCM 1217) (protein)
# chain: DTVPTNNLIAAYDFTTKPSDGKTVANSAPNATLGAAEVQNSADSLWADDALTLSGGAKTGTGDWVKLPSNLLSGKDAATVQLEVKADSSMLNAFHFLWNIGNDSSDTEYFFATLNCGSSRNPLVGLKSGGTETLVQSSSCVAKADQWLSVTATIDGTAAKLYIDGTQVASGTVPAKLSSVKDQSLNTIGRSPWPDNLFKGAVSNFRVYDAALTADQVAAISTADASIHAGELTGSVLNGIIIPTTVDDPFISLPTANGVTWASSDSSVIATDGTVNQPAKGEAAKTVTLTAAVTVRGQTATKEFTVTVNPTTKTAAEQLKEVAAGYVIPSVVRSGDALPAAVNGTTVTVTSTKDVAVEDGKITIDGDEATTGTITVEFSKNGLAGIEPITKAFTVKVLPAAKSATIAAYDRNATGENEANNGDVAYSMHLALQNADGSYTPYNENYGIFFARSPKAQKLNENLDGNDYRSLKDPSLFRMADGTYGVISVRTNRGTATGDSTAKSSVLIATSEDLLTYSEQENSGSIVDLGETNGVNAPYAVYDTASKQYVVGWADDNGVAKYTTFDSLKGSTSKHGSVLYGSVAKSGVLAADGVQGIANFRSGATIAVDEATVKALNTRYGRSENTGTSNLTDITVKKGASIDEVTAQLPKNVDLTYSDGSTGSLPISSWNTEGIDLTKVGDYTVTGTVKQTEYQIPFAEDRADPSVYKWQWTHEADGKEVTETKFLMIASNDIQGDVTWQHGSPHMPFRMADTISGLADEPGNPNALIQSNGYNNKEVSLLKAGDKDSEGNAIMHSFWAPEIHEIDGRLTILFMAGYGNTWSNGKSVYMQLKQDADGHDLDPADPDNWTVPTPIYRNDASLLNGNKQLAATASGGVGMSLDMTYFQDADGRSYYAWQQLGATYIATMDPKDPAHVTSSPVRIVTPEYAWNAAIAEGPNVTLRDGKLYLMFSGSGVGKTYTTGLAVADASGTDLTDPASWTVLNYPIQKSGPFNGEMQLGTGHGMWSEDEDGNQIYVFHAYATKNLGSVNATGRDMFVRRVHWAADGMPVFDMSSSEELASKTVSVTVKVVDDTVTVDKTDLSKALASAKQLRESDYTAASWKAFAAALASAEKVYADENASQKDVDDATAALNKAQAALVKVDGSDSGDGSSDSTKPGDGSSIDAGATGDKTGNKLGLS
# Substrate: O=[N+]([O-])c1ccc(O[C@@H]2O[C@@H](CO)[C@H](O)[C@H]2O)cc1
# Assay: purified protein
# Conditions: general assay: sodium acetate buffer pH 5.5, 37 °C
protein,measurement,value
B1,Km,9.8 mM
same,kcat,19.2 s⁻¹
